Assay results published in the supplement of paper PMC7877785.
± gives the uncertainty stated by the source.

Assay: self-splicing fitness, log relative to wild type (ln ratio); higher = more splicing; Tetrahymena group I intron in knt gene, E. coli kanamycin selection, DiMSum; sequences stand for … in CUCUCU…GGAGGGAAAAGUUAUCAGGCAUGCACCUGGUAGCUAGUCUUUAAACCAAUAGAUUGCAUCGGUUUAAAAGGCAAGACCGUCAAAUUGCGGGAAAGGGGUCAACAGCCGUUCAGUACCAAGUCUCAGGGGAAACUUUGAGAUGGCCUUGCAAAGGGUAUGGUAAUAAGCUGACGGACAUGGUCCUAACCACGCAGCCAAGUCCUAAGUCAACAGAUCUUCUGUUGAUAUGGAUGCAGUUCACAGACUAAAUGUCGGUCGGGGAAGAUGUAUUCUUCUCAUAAGAUAUAGUCGGACCUCUCCUUAAUGGGAGCUAGCGGAUGAAGUGAUGCAACACUGGAGCCGCUGGGAACUAAUUUGUAUGCGAAAGUAUAUUGAUUAGUUUUGGAGUACUCGUGGUCG
Outline: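 Library with all eight P1ex-region intron nucleotides randomised, intron inside the knt kanamycin-resistance gene on pET-22b(+), in E. coli BL21(DE3). Cells grew overnight at 37°C or 30°C on LB agar with or without 25 μg/mL kanamycin (plus 100 μg/mL carbenicillin, 50 μM IPTG, 0.2% rhamnose), in six replicate transformations. Pooled colonies were amplicon-sequenced on Illumina HiSeq 2500. DiMSum fitness is the error-weighted combination of wild-type-normalised replicate fold changes, kanamycin versus none.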

## GUAUAGCAAUAUUACGGGAA
37 °C
  self-splicing fitness (ln): -2.54 ± 0.4

## AGCCAGCAAUAUUACGUCCU
30 °C
  self-splicing fitness (ln): -0.436 ± 0.071
37 °C
  self-splicing fitness (ln): 0.142 ± 0.078

## CAAAAGCAAUAUUACGCGUG
30 °C
  self-splicing fitness (ln): -3.22 ± 0.11
37 °C
  self-splicing fitness (ln): -2.11 ± 0.14

## UGCGAGCAAUAUUACGGCUG
30 °C
  self-splicing fitness (ln): -1.04 ± 0.1
37 °C
  self-splicing fitness (ln): -0.349 ± 0.15

## AUGAAGCAAUAUUACGUCCC
30 °C
  self-splicing fitness (ln): 0.721 ± 0.15
37 °C
  self-splicing fitness (ln): -0.534 ± 0.14

## ACUCAGCAAUAUUACGAGGA
30 °C
  self-splicing fitness (ln): -1.67 ± 0.11
37 °C
  self-splicing fitness (ln): -0.591 ± 0.095

## CGUGAGCAAUAUUACGGCGG
30 °C
  self-splicing fitness (ln): 0.333 ± 0.089
37 °C
  self-splicing fitness (ln): 0.466 ± 0.11

## CAGAAGCAAUAUUACGUGUC
30 °C
  self-splicing fitness (ln): -3.9 ± 0.25
37 °C
  self-splicing fitness (ln): -4 ± 0.27

## UGCCAGCAAUAUUACGCCGU
30 °C
  self-splicing fitness (ln): -3.97 ± 0.39
37 °C
  self-splicing fitness (ln): -2.32 ± 0.32

## GGUCAGCAAUAUUACGAGUC
30 °C
  self-splicing fitness (ln): -1.51 ± 0.09
37 °C
  self-splicing fitness (ln): -0.893 ± 0.1

## GCUAAGCAAUAUUACGGCGC
30 °C
  self-splicing fitness (ln): -1.55 ± 0.11
37 °C
  self-splicing fitness (ln): -0.159 ± 0.16

## AAUGAGCAAUAUUACGGGCA
30 °C
  self-splicing fitness (ln): -3.76 ± 0.42
37 °C
  self-splicing fitness (ln): -1.24 ± 0.29

## ACCGAGCAAUAUUACGCUGC
30 °C
  self-splicing fitness (ln): -2.73 ± 0.16
37 °C
  self-splicing fitness (ln): -2.5 ± 0.23

## CAUGAGCAAUAUUACGAGCC
30 °C
  self-splicing fitness (ln): -3.05 ± 0.41

## GACGAGCAAUAUUACGUUCC
30 °C
  self-splicing fitness (ln): -3.47 ± 0.23
37 °C
  self-splicing fitness (ln): -2.65 ± 0.36

## GUUGAGCAAUAUUACGUCUG
30 °C
  self-splicing fitness (ln): -2.34 ± 0.44
37 °C
  self-splicing fitness (ln): -2.04 ± 0.4

## GUUCAGCAAUAUUACGUAAC
30 °C
  self-splicing fitness (ln): -0.462 ± 0.17
37 °C
  self-splicing fitness (ln): -0.994 ± 0.26

## GACUAGCAAUAUUACGCCGG
37 °C
  self-splicing fitness (ln): -1.67 ± 0.36

## GCUGAGCAAUAUUACGCGUA
37 °C
  self-splicing fitness (ln): -2.23 ± 0.37

## AUCCAGCAAUAUUACGCAAU
30 °C
  self-splicing fitness (ln): -1.38 ± 0.064
37 °C
  self-splicing fitness (ln): -0.773 ± 0.089

## AAUAAGCAAUAUUACGUCCG
30 °C
  self-splicing fitness (ln): -1.15 ± 0.11
37 °C
  self-splicing fitness (ln): -0.82 ± 0.15

## UCGCAGCAAUAUUACGGACA
30 °C
  self-splicing fitness (ln): -1.38 ± 0.17
37 °C
  self-splicing fitness (ln): -1.83 ± 0.14

## AAGUAGCAAUAUUACGAACU
30 °C
  self-splicing fitness (ln): -0.525 ± 0.1
37 °C
  self-splicing fitness (ln): 0.139 ± 0.12

## GAGUAGCAAUAUUACGGAAC
30 °C
  self-splicing fitness (ln): -3.8 ± 0.34
37 °C
  self-splicing fitness (ln): -1.79 ± 0.22

## AUCUAGCAAUAUUACGUUCG
30 °C
  self-splicing fitness (ln): -1.28 ± 0.091
37 °C
  self-splicing fitness (ln): -0.393 ± 0.11

## GCAGAGCAAUAUUACGAAAC
30 °C
  self-splicing fitness (ln): -3.28 ± 0.14
37 °C
  self-splicing fitness (ln): -2.23 ± 0.14

## GGUUAGCAAUAUUACGUCGU
30 °C
  self-splicing fitness (ln): -0.855 ± 0.073
37 °C
  self-splicing fitness (ln): 0.451 ± 0.11

## GGUAAGCAAUAUUACGCUUG
30 °C
  self-splicing fitness (ln): -3.34 ± 0.38
37 °C
  self-splicing fitness (ln): -1.7 ± 0.34

## AAUGAGCAAUAUUACGGACU
30 °C
  self-splicing fitness (ln): -1.59 ± 0.13
37 °C
  self-splicing fitness (ln): -2.04 ± 0.19

## GAAGAGCAAUAUUACGUAAG
30 °C
  self-splicing fitness (ln): -3.39 ± 0.21
37 °C
  self-splicing fitness (ln): -1.5 ± 0.16

## CUUAAGCAAUAUUACGUAUG
30 °C
  self-splicing fitness (ln): -1.37 ± 0.056
37 °C
  self-splicing fitness (ln): -1.24 ± 0.073

## GAGAAGCAAUAUUACGUGGU
30 °C
  self-splicing fitness (ln): -3.27 ± 0.17
37 °C
  self-splicing fitness (ln): -2.32 ± 0.21

## CACGAGCAAUAUUACGUGUC
30 °C
  self-splicing fitness (ln): -3.87 ± 0.2
37 °C
  self-splicing fitness (ln): -2.52 ± 0.14

## AAAAAGCAAUAUUACGUGUU
30 °C
  self-splicing fitness (ln): -2.04 ± 0.055
37 °C
  self-splicing fitness (ln): -1.22 ± 0.068

## CAAGAGCAAUAUUACGACCC
30 °C
  self-splicing fitness (ln): -2.19 ± 0.45

## AGUAAGCAAUAUUACGUCUG
30 °C
  self-splicing fitness (ln): -3.21 ± 0.17
37 °C
  self-splicing fitness (ln): -1.49 ± 0.12

## GGCUAGCAAUAUUACGCAAG
30 °C
  self-splicing fitness (ln): -4 ± 0.46
37 °C
  self-splicing fitness (ln): -0.63 ± 0.22

## CCGUAGCAAUAUUACGUCGU
30 °C
  self-splicing fitness (ln): -3.2 ± 0.18
37 °C
  self-splicing fitness (ln): -1.25 ± 0.16

## AAACAGCAAUAUUACGAUCU
30 °C
  self-splicing fitness (ln): -0.534 ± 0.063
37 °C
  self-splicing fitness (ln): 0.138 ± 0.076
